Measurements taken from the supplement of paper PMC7877785.
± gives the uncertainty stated by the source.

Experiment: self-splicing fitness, log relative to wild type (ln ratio); higher = more splicing; Tetrahymena group I intron in knt gene, E. coli kanamycin selection, DiMSum; sequences stand for … in CUCUCU…GGAGGGAAAAGUUAUCAGGCAUGCACCUGGUAGCUAGUCUUUAAACCAAUAGAUUGCAUCGGUUUAAAAGGCAAGACCGUCAAAUUGCGGGAAAGGGGUCAACAGCCGUUCAGUACCAAGUCUCAGGGGAAACUUUGAGAUGGCCUUGCAAAGGGUAUGGUAAUAAGCUGACGGACAUGGUCCUAACCACGCAGCCAAGUCCUAAGUCAACAGAUCUUCUGUUGAUAUGGAUGCAGUUCACAGACUAAAUGUCGGUCGGGGAAGAUGUAUUCUUCUCAUAAGAUAUAGUCGGACCUCUCCUUAAUGGGAGCUAGCGGAUGAAGUGAUGCAACACUGGAGCCGCUGGGAACUAAUUUGUAUGCGAAAGUAUAUUGAUUAGUUUUGGAGUACUCGUGGUCG
Method in brief: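 DiMSum derived fitness as the error-weighted combination of fold changes across replicates, kanamycin versus no kanamycin, normalised to wild type. E. coli BL21(DE3) held the library, which randomised all eight P1ex-region intron nucleotides within the knt kanamycin-resistance gene on pET-22b(+). Six replicate transformations grew overnight at 37°C or 30°C on LB agar with or without 25 μg/mL kanamycin, also containing 100 μg/mL carbenicillin, 50 μM IPTG and 0.2% rhamnose, and pooled colonies were amplicon-sequenced on an Illumina HiSeq 2500.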

Sequence	self-splicing fitness (ln) (30 °C)	self-splicing fitness (ln) (37 °C)
AAGAAGCAAUAUUACGAAUU	-1.53 ± 0.084	-0.992 ± 0.12
AAGAAGCAAUAUUACGACAU	-0.0917 ± 0.012	-0.0361 ± 0.032
AAGAAGCAAUAUUACGACGG	-1.52 ± 0.078	-1.15 ± 0.14
AAGAAGCAAUAUUACGAGGG	-3.5 ± 0.3	-2.32 ± 0.35
AAGAAGCAAUAUUACGAGUC	-2.53 ± 0.23	-1.51 ± 0.25
AAGAAGCAAUAUUACGCCAG	-2.87 ± 0.26	-2.3 ± 0.27
AAGAAGCAAUAUUACGCGCA	0.0488 ± 0.077	0.115 ± 0.1
AAGAAGCAAUAUUACGCGGG	-2.95 ± 0.2	-0.684 ± 0.11
AAGAAGCAAUAUUACGCGGU	-3.58 ± 0.3	-1.54 ± 0.19
AAGAAGCAAUAUUACGCUAU	-3.04 ± 0.17	-1.44 ± 0.17
AAGAAGCAAUAUUACGGAAC		-2.58 ± 0.45
AAGAAGCAAUAUUACGGAAU	-1.67 ± 0.12	-1.85 ± 0.2
AAGAAGCAAUAUUACGGAUC	-1.23 ± 0.11	0.142 ± 0.17
AAGAAGCAAUAUUACGGCUU	-2.42 ± 0.14	-3.23 ± 0.24
AAGAAGCAAUAUUACGGGCG	-1.48 ± 0.081	-0.421 ± 0.11
AAGAAGCAAUAUUACGGGUC	-4.04 ± 0.35	-1.69 ± 0.21
AAGAAGCAAUAUUACGUGCA	-0.663 ± 0.08	-0.0733 ± 0.1
AAGAAGCAAUAUUACGUGGA	-2.97 ± 0.12	-2.44 ± 0.12
AAGAAGCAAUAUUACGUUCG	-0.932 ± 0.084	-0.625 ± 0.1
AAGAAGCAAUAUUACGUUGA	-1.76 ± 0.12	-2.25 ± 0.14
AAGCAGCAAUAUUACGAAAA	-2.81 ± 0.25	-1.77 ± 0.16
AAGCAGCAAUAUUACGAAAU	-2.65 ± 0.11	-1.33 ± 0.12
AAGCAGCAAUAUUACGACGA	-0.888 ± 0.089	-0.307 ± 0.094
AAGCAGCAAUAUUACGAGCA	-0.694 ± 0.073	-0.435 ± 0.086
AAGCAGCAAUAUUACGAUAC	-2.7 ± 0.14	-1.7 ± 0.18
AAGCAGCAAUAUUACGAUGA	-0.809 ± 0.078	-0.909 ± 0.083

Sequence	self-splicing fitness (ln) (30 °C)	self-splicing fitness (ln) (37 °C)
AAGCAGCAAUAUUACGCCGU	-1.22 ± 0.11	-0.738 ± 0.13
AAGCAGCAAUAUUACGCGAG	-0.949 ± 0.095	-0.986 ± 0.11
AAGCAGCAAUAUUACGCGCC	-1.33 ± 0.11	-1.24 ± 0.15
AAGCAGCAAUAUUACGCGGC	-3.33 ± 0.35	-2.4 ± 0.24
AAGCAGCAAUAUUACGCUAA	-1.46 ± 0.075	-1.12 ± 0.086
AAGCAGCAAUAUUACGCUCC	-1.82 ± 0.16	-0.511 ± 0.2
AAGCAGCAAUAUUACGCUGG	-3.27 ± 0.21	-1.72 ± 0.15
AAGCAGCAAUAUUACGCUUG	-2.89 ± 0.16	-2.14 ± 0.16
AAGCAGCAAUAUUACGGCUG	-2.92 ± 0.12	-2.75 ± 0.16
AAGCAGCAAUAUUACGGUAG	-3.38 ± 0.15	-3.25 ± 0.2
AAGCAGCAAUAUUACGUAAU	-1.49 ± 0.068	-0.923 ± 0.094
AAGCAGCAAUAUUACGUAGA	-2.7 ± 0.097	-1.42 ± 0.082
AAGCAGCAAUAUUACGUCAC	-4.94 ± 0.42	-2.25 ± 0.3
AAGCAGCAAUAUUACGUCAU	-3.1 ± 0.14	-1.76 ± 0.14
AAGCAGCAAUAUUACGUCUC	-1.28 ± 0.065	-0.717 ± 0.077
AAGCAGCAAUAUUACGUGUA	-1.83 ± 0.081	-0.134 ± 0.077
AAGCAGCAAUAUUACGUUUC	-3.3 ± 0.16	-2.27 ± 0.31
AAGGAGCAAUAUUACGAAAU	-2.26 ± 0.14	-3 ± 0.29
AAGGAGCAAUAUUACGAGCU		-0.204 ± 0.24
AAGGAGCAAUAUUACGAGGG	-2.76 ± 0.24	-2.93 ± 0.3
AAGGAGCAAUAUUACGAUGA	-3.04 ± 0.24	-2.02 ± 0.2
AAGGAGCAAUAUUACGAUGU	-2.12 ± 0.14	-2.28 ± 0.23
AAGGAGCAAUAUUACGCACG	-1.84 ± 0.43	-0.01 ± 0.45
AAGGAGCAAUAUUACGCAUC	-5.17 ± 0.36	-2.52 ± 0.19
AAGGAGCAAUAUUACGCCGG	-3.01 ± 0.4	-2.6 ± 0.36
AAGGAGCAAUAUUACGCGCA	-1.82 ± 0.18	-0.97 ± 0.2

Sequence	self-splicing fitness (ln) (30 °C)	self-splicing fitness (ln) (37 °C)
AAGGAGCAAUAUUACGCUAC	-2.75 ± 0.43	
AAGGAGCAAUAUUACGCUGC	-3.07 ± 0.38	-2.68 ± 0.26
AAGGAGCAAUAUUACGCUUG	-1.86 ± 0.1	-0.799 ± 0.13
AAGGAGCAAUAUUACGGAAA		-0.83 ± 0.24
AAGGAGCAAUAUUACGGGGU	-3.61 ± 0.18	-2.31 ± 0.15
AAGGAGCAAUAUUACGGUAC	-3.2 ± 0.47	-2.19 ± 0.4
AAGGAGCAAUAUUACGUAAC	-3.28 ± 0.25	-2.96 ± 0.43
AAGGAGCAAUAUUACGUACA	-2.75 ± 0.33	-2.11 ± 0.21
AAGGAGCAAUAUUACGUACU	-0.884 ± 0.11	-0.189 ± 0.11
AAGGAGCAAUAUUACGUAGC		-2.18 ± 0.42
AAGGAGCAAUAUUACGUGCA	-3.03 ± 0.18	-1.37 ± 0.17
AAGGAGCAAUAUUACGUGCC	-3.03 ± 0.37	-0.905 ± 0.39
AAGGAGCAAUAUUACGUUUA	-2.95 ± 0.24	-1.66 ± 0.16
AAGUAGCAAUAUUACGAACG	-1.86 ± 0.11	-1.17 ± 0.13
AAGUAGCAAUAUUACGAAUU	-1.94 ± 0.12	-0.748 ± 0.15
AAGUAGCAAUAUUACGACCU	0.0875 ± 0.13	-0.703 ± 0.17
AAGUAGCAAUAUUACGAUGC	-2.76 ± 0.16	-0.209 ± 0.15
AAGUAGCAAUAUUACGAUGG	-3.03 ± 0.2	-2.75 ± 0.33
AAGUAGCAAUAUUACGCUCU	-1.25 ± 0.18	-1.29 ± 0.17
AAGUAGCAAUAUUACGGCAU	-0.18 ± 0.094	0.382 ± 0.12
AAGUAGCAAUAUUACGUCCC	-0.0634 ± 0.3	-0.156 ± 0.24
AAGUAGCAAUAUUACGUGCA	-0.781 ± 0.074	-0.196 ± 0.098
AAUAAGCAAUAUUACGAACA	-0.812 ± 0.15	-0.462 ± 0.15
AAUAAGCAAUAUUACGAACG	-1.5 ± 0.12	-0.285 ± 0.17
AAUAAGCAAUAUUACGACAA	-0.398 ± 0.13	-0.323 ± 0.12
